# In patent US20230407373A1 (priority 2020, published 2023):
# B1: RNPS1 (protein, UniProt Q15287 1-305, looked up)
# RNA-binding protein with …: MDLSGVKKKSLLGVKENNKKSSTRAPSPTKRKDRSDEKSKDRSKDKGATKESSEKDRGRDKTRKRRSASSGSSSTRSRSSSTSSSGSSTSTGSSSGSSSSSASSRSGSSSTSRSSSSSSSSGSPSPSRRRHDNRRRSRSKSKPPKRDEKERKRRSPSPKPTKVHIGRLTRNVTKDHIMEIFSTYGKIKMIDMPVERMHPHLSKGYAYVEFENPDEAEKALKHMDGGQIDGQEITATAVLAPWPRPPPRRFSPPRRMLPPPPMWRRSPPRMRRRSRSPRRRSPVRRRSRSPGRRRHRSRSSSNSSR
# B2: TMPO (protein, UniProt P42166 2-694, looked up)
# Lamina-associated polypeptide …: PEFLEDPSVLTKDKLKSELVANNVTLPAGEQRKDVYVQLYLQHLTARNRPPLPAGTNSKGPPDFSSDEEREPTPVLGSGAAAAGRSRAAVGRKATKKTDKPRQEDKDDLDVTELTNEDLLDQLVKYGVNPGPIVGTTRKLYEKKLLKLREQGTESRSSTPLPTISSSAENTRQNGSNDSDRYSDNEEGKKKEHKKVKSTRDIVPFSELGTTPSGGGFFQGISFPEISTRPPLGSTELQAAKKVHTSKGDLPREPLVATNLPGRGQLQKLASERNLFISCKSSHDRCLEKSSSSSSQPEHSAMLVSTAASPSLIKETTTGYYKDIVENICGREKSGIQPLCPERSHISDQSPLSSKRKALEESESSQLISPPLAQAIRDYVNSLLVQGGVGSLPGTSNSMPPLDVENIQKRIDQSKFQETEFLSPPRKVPRLSEKSVEERDSGSFVAFQNIPGSELMSSFAKTVVSHSLTTLGLEVAKQSQHDKIDASELSFPFHESILKVIEEEWQQVDRQLPSLACKYPVSSREATQILSVPKVDDEILGFISEATPLGGIQAASTESCNQQLDLALCRAYEAAASALQIATHTAFVAKAMQADISQAAQILSSDPSRTHQALGILSKTYDAASYICEAAFDEVKMAAHTMGNATVGRRYLWLKDCKINLASKNKLASTPFKGGTLFGGEVCKVIKKRGNKH
# B3: MSN (protein, UniProt P26038 2-577, looked up)
# Moesin: PKTISVRVTTMDAELEFAIQPNTTGKQLFDQVVKTIGLREVWFFGLQYQDTKGFSTWLKLNKKVTAQDVRKESPLLFKFRAKFYPEDVSEELIQDITQRLFFLQVKEGILNDDIYCPPETAVLLASYAVQSKYGDFNKEVHKSGYLAGDKLLPQRVLEQHKLNKDQWEERIQVWHEEHRGMLREDAVLEYLKIAQDLEMYGVNYFSIKNKKGSELWLGVDALGLNIYEQNDRLTPKIGFPWSEIRNISFNDKKFVIKPIDKKAPDFVFYAPRLRINKRILALCMGNHELYMRRRKPDTIEVQQMKAQAREEKHQKQMERAMLENEKKKREMAEKEKEKIEREKEELMERLKQIEEQTKKAQQELEEQTRRALELEQERKRAQSEAEKLAKERQEAEEAKEALLQASRDQKKTQEQLALEMAELTARISQLEMARQKKESEAVEWQQKAQMVQEDLEKTRAELKTAMSTPHVAEPAENEQDEQDENGAEASADLRADAMAKDRSEEERTTEAEKNERVQKHLKALTSELANARDESKKTANDMIHAENMRLGRDKYKTLRQIRQGNTKQRIDEFESM
# B4: HNANPF (protein, UniProt P52597 1-415, looked up)
# Heterogeneous nuclear …: MMLGPEGGEGFVVKLRGLPWSCSVEDVQNFLSDCTIHDGAAGVHFIYTREGRQSGEAFVELGSEDDVKMALKKDRESMGHRYIEVFKSHRTEMDWVLKHSGPNSADSANDGFVRLRGLPFGCTKEEIVQFFSGLEIVPNGITLPVDPEGKITGEAFVQFASQELAEKALGKHKERIGHRYIEVFKSSQEEVRSYSDPPLKFMSVQRPGPYDRPGTARRYIGIVKQAGLERMRPGAYSTGYGGYEEYSGLSDGYGFTTDLFGRDLSYCLSGMYDHRYGDSEFTVQSTTGHCVHMRGLPYKATENDIYNFFSPLNPVRVHIEIGPDGRVTGEADVEFATHEEAVAAMSKDRANMQHRYIELFLNSTTGASNGAYSSQVMQGMGVSAAQATYSGLESQSVSGCYGAGYSGQNSMGGYD
# B5: POLG (protein, UniProt P54098 1-1239, looked up)
# DNA polymerase subunit gamma-1: MSRLLWRKVAGATVGPGPVPAPGRWVSSSVPASDPSDGQRRRQQQQQQQQQQQQQPQQPQVLSSEGGQLRHNPLDIQMLSRGLHEQIFGQGGEMPGEAAVRRSVEHLQKHGLWGQPAVPLPDVELRLPPLYGDNLDQHFRLLAQKQSLPYLEAANLLLQAQLPPKPPAWAWAEGWTRYGPEGEAVPVAIPEERALVFDVEVCLAEGTCPTLAVAISPSAWYSWCSQRLVEERYSWTSQLSPADLIPLEVPTGASSPTQRDWQEQLVVGHNVSFDRAHIREQYLIQGSRMRFLDTMSMHMAISGLSSFQRSLWIAAKQGKHKVQPPTKQGQKSQRKARRGPAISSWDWLDISSVNSLAEVHRLYVGGPPLEKEPRELFVKGTMKDIRENFQDLMQYCAQDVWATHEVFQQQLPLFLERCPHPVTLAGMLEMGVSYLPVNQNWERYLAEAQGTYEELQREMKKSLMDLANDACQLLSGERYKEDPWLWDLEWDLQEFKQKKAKKVKKEPATASKLPIEGAGAPGDPMDQEDLGPCSEEEEFQQDVMARACLQKLKGTTELLPKRPQHLPGHPGWYRKLCPRLDDPAWTPGPSLLSLQMRVTPKLMALTWDGFPLHYSERHGWGYLVPGRRDNLAKLPTGTTLESAGVVCPYRAIESLYRKHCLEQGKQQLMPQEAGLAEEFLLTDNSAIWQTVEELDYLEVEAEAKMENLRAAVPGQPLALTARGGPKDTQPSYHHGNGPYNDVDIPGCWFFKLPHKDGNSCNVGSPFAKDFLPKMEDGTLQAGPGGASGPRALEINKMISFWRNAHKRISSQMVVWLPRSALPRAVIRHPDYDEEGLYGAILPQVVTAGTITRRAVEPTWLTASNARPDRVGSELKAMVQAPPGYTLVGADVDSQELWIAAVLGDAHFAGMHGCTAFGWMTLQGRKSRGTDLHSKTATTVGISREHAKIFNYGRIYGAGQPFAERLLMQFNHRLTQQEAAEKAQQMYAATKGLRWYRLSDEGEWLVRELNLPVDRTEGGWISLQDLRKVQRETARKSQWKKWEVVAERAWKGGTESEMFNKLESIATSDIPRTPVLGCCISRALEPSAVQEEFMTSRVNWVVQSSAVDYLHLMLVAMKWLFEEFAIDGRFCISIHDEVRYLVREEDRYRAALALQITNLLTRCMFAYKLGLNDLPQSVAFFSAVDIDRCLRKEVTMDCKTPSNPTGMERRYGIPQGEALDIYQIIELTKGSLEKRSQPGP
# B6: ATXN2 ? (protein, UniProt Q99700 1-1313, looked up)
# Ataxin-2: MRSAAAAPRSPAVATESRRFAAARWPGWRSLQRPARRSGRGGGGAAPGPYPSAAPPPPGPGPPPSRQSSPPSASDCFGSNGNGGGAFRPGSRRLLGLGGPPRPFVVLLLPLASPGAPPAAPTRASPLGARASPPRSGVSLARPAPGCPRPACEPVYGPLTMSLKPQQQQQQQQQQQQQQQQQQQQQQQPPPAAANVRKPGGSGLLASPAAAPSPSSSSVSSSSATAPSSVVAATSGGGRPGLGRGRNSNKGLPQSTISFDGIYANMRMVHILTSVVGSKCEVQVKNGGIYEGVFKTYSPKCDLVLDAAHEKSTESSSGPKREEIMESILFKCSDFVVVQFKDMDSSYAKRDAFTDSAISAKVNGEHKEKDLEPWDAGELTANEELEALENDVSNGWDPNDMFRYNEENYGVVSTYDSSLSSYTVPLERDNSEEFLKREARANQLAEEIESSAQYKARVALENDDRSEEEKYTAVQRNSSEREGHSINTRENKYIPPGQRNREVISWGSGRQNSPRMGQPGSGSMPSRSTSHTSDFNPNSGSDQRVVNGGVPWPSPCPSPSSRPPSRYQSGPNSLPPRAATPTRPPSRPPSRPSRPPSHPSAHGSPAPVSTMPKRMSSEGPPRMSPKAQRHPRNHRVSAGRGSISSGLEFVSHNPPSEAATPPVARTSPSGGTWSSVVSGVPRLSPKTHRPRSPRQNSIGNTPSGPVLASPQAGIIPTEAVAMPIPAASPTPASPASNRAVTPSSEAKDSRLQDQRQNSPAGNKENIKPNETSPSFSKAENKGISPVVSEHRKQIDDLKKFKNDFRLQPSSTSESMDQLLNKNREGEKSRDLIKDKIEPSAKDSFIENSSSNCTSGSSKPNSPSISPSILSNTEHKRGPEVTSQGVQTSSPACKQEKDDKEEKKDAAEQVRKSTLNPNAKEFNPRSFSQPKPSTTPTSPRPQAQPSPSMVGHQQPTPVYTQPVCFAPNMMYPVPVSPGVQPLYPIPMTPMPVNQAKTYRAVPNMPQQRQDQHHQSAMMHPASAAGPPIAATPPAYSTQYVAYSPQQFPNQPLVQHVPHYQSQHPHVYSPVIQGNARMMAPPTHAQPGLVSSSATQYGAHEQTHAMYACPKLPYNKETSPSFYFAISTGSLAQQYAHPNATLHPHTPHPQPSATPTGQQQSQHGGSHPAPSPVQHHQHQAAQALHLASPQQQSAIYHAGLAPTPPSMTPASNTQSPQNSFPAAQQTVFTIHPSHVQPAYTNPPHMAHVPQAHVQSGMVPSHPTAHAPMMLMTTQPPGGPQAALAQSALQPIPVSTTAHFPYMTHPSVQAHHQQQL
# B7: SNW1 (protein, UniProt Q13573 2-536, looked up)
# SNW domain-containing protein …: ALTSFLPAPTQLSQDQLEAEEKARSQRSRQTSLVSSRREPPPYGYRKGWIPRLLEDFGDGGAFPEIHVAQYPLDMGRKKKMSNALAIQVDSEGKIKYDAIARQGQSKDKVIYSKYTDLVPKEVMNADDPDLQRPDEEAIKEITEKTRVALEKSVSQKVAAAMPVRAADKLAPAQYIRYTPSQQGVAFNSGAKQRVIRMVEMQKDPMEPPRFKINKKIPRGPPSPPAPVMHSPSRKMTVKEQQEWKIPPCISNWKNAKGYTIPLDKRLAADGRGLQTVHINENFAKLAEALYIADRKAREAVEMRAQVERKMAQKEKEKHEEKLREMAQKARERRAGIKTHVEKEDGEARERDEIRHDRRKERQHDRNLSRAAPDKRSKLQRNENRDISEVIALGVPNPRTSNEVQYDQRLFNQSKGMDSGFAGGEDEIYNVYDQAWRGGKDMAQSIYRPSKNLDKDMYGDDLEARIKTNRFVPDKEFSGSDRRQRGREGPVQFEEDPFGLDKFLEEAKQHGGSKRPSDSSRPKEHEHEGKKRRKE
# B8: DBX3X: host protein, UniProt O00571 (protein, UniProt O00571 2-662, looked up)
# ATP-dependent RNA helicase …: SHVAVENALGLDQQFAGLDLNSSDNQSGGSTASKGRYIPPHLRNREATKGFYDKDSSGWSSSKDKDAYSSFGSRSDSRGKSSFFSDRGSGSRGRFDDRGRSDYDGIGSRGDRSGFGKFERGGNSRWCDKSDEDDWSKPLPPSERLEQELFSGGNTGINFEKYDDIPVEATGNNCPPHIESFSDVEMGEIIMGNIELTRYTRPTPVQKHAIPIIKEKRDLMACAQTGSGKTAAFLLPILSQIYSDGPGEALRAMKENGRYGRRKQYPISLVLAPTRELAVQIYEEARKFSYRSRVRPCVVYGGADIGQQIRDLERGCHLLVATPGRLVDMMERGKIGLDFCKYLVLDEADRMLDMGFEPQIRRIVEQDTMPPKGVRHTMMFSATFPKEIQMLARDFLDEYIFLAVGRVGSTSENITQKVVWVEESDKRSFLLDLLNATGKDSLTLVFVETKKGADSLEDFLYHEGYACTSIHGDRSQRDREEALHQFRSGKSPILVATAVAARGLDISNVKHVINFDLPSDIEEYVHRIGRTGRVGNLGLATSFFNERNINITKDLLDLLVEAKQEVPSWLENMAYEHHYKGSSRGRSKSSRFSGGFGARDYRQSSGASSSSFSSSRASSSRSGGGGHGSSRGFGGGGYGGFYNSDGYGGNYNSQGVDWWGN
# Columns and labels:
# HCoV-OC43 gRNA and sgRNA = format: binding; conditions: for target (unweighted spectral count): OC43 Probe II, 12 hpi (type n_12_v), infected cells, tested against no-probe control
# gRNA of HCoV-OC43 = format: binding; conditions: type n_48_v: 48 hours post-infection; for target (spectral count, OC43 Probe I RNP capture): infected cells, unweighted spectral count; for background (spectral count, no-probe control): no-probe control on infected cells
Molecule,target (unweighted spectral count) (HCoV-OC43 gRNA and sgRNA),"target (spectral count, OC43 Probe I RNP capture) (gRNA of HCoV-OC43)","background (spectral count, no-probe control) (gRNA of HCoV-OC43)",also measured
B1,7,,,
B2,4,,,
B3,,5,1,
B4,,,4,
B5,5,,,
B6,,12,1,
B7,,5,1,
B8,,,,"target (spectral count) (HCoV-OC43 gRNA and sgRNA; type s_36_m, HCoV-OC43-infected HCT-8 cells, 36 hpi, Probe II): 7; background (spectral count) (HCoV-OC43 gRNA and sgRNA; type s_36_m, uninfected-probe control, 36 hpi, Probe II): 1"
